Article PMC3615136 (Molecular cell, 2013)

T1: wild-type FlaI, Sulfolobus acidocaldarius (Sulfolobus acidocaldarius), Q4J9L0
T1 chain: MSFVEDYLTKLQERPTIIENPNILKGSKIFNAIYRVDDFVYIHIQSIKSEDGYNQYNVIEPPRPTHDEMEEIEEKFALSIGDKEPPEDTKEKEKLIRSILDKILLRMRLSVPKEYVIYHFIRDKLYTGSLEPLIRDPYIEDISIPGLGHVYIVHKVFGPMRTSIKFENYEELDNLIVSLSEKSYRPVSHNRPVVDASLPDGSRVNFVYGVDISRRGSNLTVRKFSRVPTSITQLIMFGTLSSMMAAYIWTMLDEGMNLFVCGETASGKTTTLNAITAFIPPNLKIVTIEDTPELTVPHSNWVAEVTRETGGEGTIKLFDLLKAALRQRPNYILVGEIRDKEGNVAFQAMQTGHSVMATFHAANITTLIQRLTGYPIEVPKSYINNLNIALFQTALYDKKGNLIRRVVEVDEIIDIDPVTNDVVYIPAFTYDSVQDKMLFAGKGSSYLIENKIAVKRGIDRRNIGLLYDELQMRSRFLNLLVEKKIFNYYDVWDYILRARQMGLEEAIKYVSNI

B1: wild-type FlaI, Sulfolobus acidocaldarius, Q4J9L0 1-513 (enzyme)
chain: MSFVEDYLTKLQERPTIIENPNILKGSKIFNAIYRVDDFVYIHIQSIKSEDGYNQYNVIEPPRPTHDEMEEIEEKFALSIGDKEPPEDTKEKEKLIRSILDKILLRMRLSVPKEYVIYHFIRDKLYTGSLEPLIRDPYIEDISIPGLGHVYIVHKVFGPMRTSIKFENYEELDNLIVSLSEKSYRPVSHNRPVVDASLPDGSRVNFVYGVDISRRGSNLTVRKFSRVPTSITQLIMFGTLSSMMAAYIWTMLDEGMNLFVCGETASGKTTTLNAITAFIPPNLKIVTIEDTPELTVPHSNWVAEVTRETGGEGTIKLFDLLKAALRQRPNYILVGEIRDKEGNVAFQAMQTGHSVMATFHAANITTLIQRLTGYPIEVPKSYINNLNIALFQTALYDKKGNLIRRVVEVDEIIDIDPVTNDVVYIPAFTYDSVQDKMLFAGKGSSYLIENKIAVKRGIDRRNIGLLYDELQMRSRFLNLLVEKKIFNYYDVWDYILRARQMGLEEAIKYVSNI
B2: FlaI Walker B mutant (FlaI^E336A), full-length, Sulfolobus acidocaldarius (enzyme, UniProt Q4J9L0 1-513, looked up)
chain: MSFVEDYLTKLQERPTIIENPNILKGSKIFNAIYRVDDFVYIHIQSIKSEDGYNQYNVIEPPRPTHDEMEEIEEKFALSIGDKEPPEDTKEKEKLIRSILDKILLRMRLSVPKEYVIYHFIRDKLYTGSLEPLIRDPYIEDISIPGLGHVYIVHKVFGPMRTSIKFENYEELDNLIVSLSEKSYRPVSHNRPVVDASLPDGSRVNFVYGVDISRRGSNLTVRKFSRVPTSITQLIMFGTLSSMMAAYIWTMLDEGMNLFVCGETASGKTTTLNAITAFIPPNLKIVTIEDTPELTVPHSNWVAEVTRETGGEGTIKLFDLLKAALRQRPNYILVGAIRDKEGNVAFQAMQTGHSVMATFHAANITTLIQRLTGYPIEVPKSYINNLNIALFQTALYDKKGNLIRRVVEVDEIIDIDPVTNDVVYIPAFTYDSVQDKMLFAGKGSSYLIENKIAVKRGIDRRNIGLLYDELQMRSRFLNLLVEKKIFNYYDVWDYILRARQMGLEEAIKYVSNI
B3: FlaI^R307K/E336A interface mutant in the Walker B background (enzyme, Sulfolobus acidocaldarius, UniProt Q4J9L0 1-513, looked up)
chain: MSFVEDYLTKLQERPTIIENPNILKGSKIFNAIYRVDDFVYIHIQSIKSEDGYNQYNVIEPPRPTHDEMEEIEEKFALSIGDKEPPEDTKEKEKLIRSILDKILLRMRLSVPKEYVIYHFIRDKLYTGSLEPLIRDPYIEDISIPGLGHVYIVHKVFGPMRTSIKFENYEELDNLIVSLSEKSYRPVSHNRPVVDASLPDGSRVNFVYGVDISRRGSNLTVRKFSRVPTSITQLIMFGTLSSMMAAYIWTMLDEGMNLFVCGETASGKTTTLNAITAFIPPNLKIVTIEDTPELTVPHSNWVAEVTKETGGEGTIKLFDLLKAALRQRPNYILVGAIRDKEGNVAFQAMQTGHSVMATFHAANITTLIQRLTGYPIEVPKSYINNLNIALFQTALYDKKGNLIRRVVEVDEIIDIDPVTNDVVYIPAFTYDSVQDKMLFAGKGSSYLIENKIAVKRGIDRRNIGLLYDELQMRSRFLNLLVEKKIFNYYDVWDYILRARQMGLEEAIKYVSNI
B4: FlaI^N190E/E336A interface mutant in the Walker B background (enzyme, Sulfolobus acidocaldarius, UniProt Q4J9L0 1-513, looked up)
chain: MSFVEDYLTKLQERPTIIENPNILKGSKIFNAIYRVDDFVYIHIQSIKSEDGYNQYNVIEPPRPTHDEMEEIEEKFALSIGDKEPPEDTKEKEKLIRSILDKILLRMRLSVPKEYVIYHFIRDKLYTGSLEPLIRDPYIEDISIPGLGHVYIVHKVFGPMRTSIKFENYEELDNLIVSLSEKSYRPVSHERPVVDASLPDGSRVNFVYGVDISRRGSNLTVRKFSRVPTSITQLIMFGTLSSMMAAYIWTMLDEGMNLFVCGETASGKTTTLNAITAFIPPNLKIVTIEDTPELTVPHSNWVAEVTRETGGEGTIKLFDLLKAALRQRPNYILVGAIRDKEGNVAFQAMQTGHSVMATFHAANITTLIQRLTGYPIEVPKSYINNLNIALFQTALYDKKGNLIRRVVEVDEIIDIDPVTNDVVYIPAFTYDSVQDKMLFAGKGSSYLIENKIAVKRGIDRRNIGLLYDELQMRSRFLNLLVEKKIFNYYDVWDYILRARQMGLEEAIKYVSNI

Tests used:
[1] = molecular target: T1, wild-type FlaI, Sulfolobus …; assay: crystal structure; conditions: remark: other sources report otherwise
crystal structure = molecular target: the molecule itself; assay: crystal structure
SEC = molecular target: the molecule itself; assay: SEC

Binder	binding result (SEC)	also measured
B1		stoichiometry N [1]: 6
B2		stoichiometry N (crystal structure): 6
B3	binds	
B4	binds	
